From paper PMC7877763, “Aberrant binding of mutant HSP47 affects posttranslational modification of type I collagen and leads to osteogenesis imperfecta” (PLoS Genetics, 2021) come the findings set out here.

The target in assay [1] is T1, full length pepsinized type I collagen from mouse tail tendon (mouse, UniProt P11087 152-1207; Q01149 86-1125).
T1 construct: collagen alpha-1(I) chain, mouse; collagen alpha-2(I) chain, mouse; Chain composition (two alpha1(I), one alpha2(I)) as the introduction tells of type I collagen in general; source: purified from mouse tail tendon (pepsinized); copies: 2 + 1
T1 sequence (P11087 152-1207, chain 1 of 2): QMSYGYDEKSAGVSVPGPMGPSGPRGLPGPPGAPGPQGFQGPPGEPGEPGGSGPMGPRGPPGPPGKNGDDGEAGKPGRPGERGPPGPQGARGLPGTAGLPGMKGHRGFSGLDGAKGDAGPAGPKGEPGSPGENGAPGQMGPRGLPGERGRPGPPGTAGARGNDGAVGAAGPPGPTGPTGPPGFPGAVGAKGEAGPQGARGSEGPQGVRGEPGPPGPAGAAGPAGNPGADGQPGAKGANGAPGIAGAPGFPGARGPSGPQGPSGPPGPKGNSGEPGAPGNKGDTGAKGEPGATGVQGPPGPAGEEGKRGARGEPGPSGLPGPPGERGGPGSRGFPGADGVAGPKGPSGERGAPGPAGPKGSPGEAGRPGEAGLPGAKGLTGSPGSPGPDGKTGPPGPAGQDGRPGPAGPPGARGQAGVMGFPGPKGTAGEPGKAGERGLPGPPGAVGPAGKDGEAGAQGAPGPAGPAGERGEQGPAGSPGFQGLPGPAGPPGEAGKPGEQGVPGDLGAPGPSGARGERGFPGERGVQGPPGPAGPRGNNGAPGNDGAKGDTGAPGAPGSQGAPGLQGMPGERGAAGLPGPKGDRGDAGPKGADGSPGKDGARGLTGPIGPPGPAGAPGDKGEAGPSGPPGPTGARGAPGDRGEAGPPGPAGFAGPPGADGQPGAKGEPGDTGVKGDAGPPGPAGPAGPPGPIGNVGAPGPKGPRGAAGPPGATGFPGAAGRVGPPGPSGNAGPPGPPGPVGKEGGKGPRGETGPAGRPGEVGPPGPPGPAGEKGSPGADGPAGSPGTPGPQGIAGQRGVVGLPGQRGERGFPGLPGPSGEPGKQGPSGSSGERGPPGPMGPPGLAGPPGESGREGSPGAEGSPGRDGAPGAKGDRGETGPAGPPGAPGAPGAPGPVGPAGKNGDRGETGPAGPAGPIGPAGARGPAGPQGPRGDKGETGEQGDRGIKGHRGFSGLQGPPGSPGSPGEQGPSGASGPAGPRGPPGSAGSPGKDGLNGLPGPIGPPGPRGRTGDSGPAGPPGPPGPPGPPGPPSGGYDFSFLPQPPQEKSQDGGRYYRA
T1 sequence (Q01149 86-1125, chain 2 of 2): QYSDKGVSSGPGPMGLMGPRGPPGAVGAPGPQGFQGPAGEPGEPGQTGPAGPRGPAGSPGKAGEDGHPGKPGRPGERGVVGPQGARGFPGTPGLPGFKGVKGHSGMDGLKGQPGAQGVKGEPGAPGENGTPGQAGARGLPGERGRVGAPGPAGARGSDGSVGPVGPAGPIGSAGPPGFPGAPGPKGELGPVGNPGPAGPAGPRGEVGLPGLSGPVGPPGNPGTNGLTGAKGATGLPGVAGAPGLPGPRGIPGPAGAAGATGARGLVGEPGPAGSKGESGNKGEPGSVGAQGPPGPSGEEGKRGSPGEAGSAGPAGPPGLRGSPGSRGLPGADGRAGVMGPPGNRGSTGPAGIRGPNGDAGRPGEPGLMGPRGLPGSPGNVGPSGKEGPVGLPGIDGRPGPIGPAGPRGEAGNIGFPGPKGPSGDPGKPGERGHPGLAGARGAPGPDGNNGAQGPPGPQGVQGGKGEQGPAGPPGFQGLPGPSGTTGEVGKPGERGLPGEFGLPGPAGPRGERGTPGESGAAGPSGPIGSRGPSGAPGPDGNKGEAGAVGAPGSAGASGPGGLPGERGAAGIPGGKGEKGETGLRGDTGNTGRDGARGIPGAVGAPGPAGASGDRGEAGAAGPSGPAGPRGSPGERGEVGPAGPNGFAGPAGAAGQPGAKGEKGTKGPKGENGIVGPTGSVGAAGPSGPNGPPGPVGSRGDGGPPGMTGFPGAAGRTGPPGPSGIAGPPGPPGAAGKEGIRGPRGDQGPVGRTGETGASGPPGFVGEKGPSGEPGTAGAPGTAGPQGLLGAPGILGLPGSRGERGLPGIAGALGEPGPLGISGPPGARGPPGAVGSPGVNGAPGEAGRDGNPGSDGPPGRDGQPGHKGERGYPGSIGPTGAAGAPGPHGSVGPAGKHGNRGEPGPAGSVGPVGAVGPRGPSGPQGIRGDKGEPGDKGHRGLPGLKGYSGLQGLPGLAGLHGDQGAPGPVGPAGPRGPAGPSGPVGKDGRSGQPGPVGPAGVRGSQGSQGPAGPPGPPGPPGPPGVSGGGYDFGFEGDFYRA
Briefly: SPR; BIAcore X; type I collagen from mouse tail tendon immobilised on a CM5 chip by amide coupling (about 6,000 RU); HSP47 flowed over; 20°C; HBS-P (10 mM Hepes pH 7.4, 150 mM NaCl, 0.005% Surfactant P20); 10 ul/min; Langmuir binding model. The conditions noted are these: both partners purified. On the technique in general: SPR reads the build-up and loss of mass on a sensor chip optically.

The target of assay [2] is T2, type I collagen from rat tail (rat, UniProt P02454 152-1207; P02466 86-1125).
T2 construct: collagen alpha-1(I) chain, rat; collagen alpha-2(I) chain, rat; Chain composition as the introduction tells of type I collagen in general; also called full length type I collagen; source: bought: BD Bioscience; copies: 2 + 1
T2 sequence (P02454 152-1207, chain 1 of 2): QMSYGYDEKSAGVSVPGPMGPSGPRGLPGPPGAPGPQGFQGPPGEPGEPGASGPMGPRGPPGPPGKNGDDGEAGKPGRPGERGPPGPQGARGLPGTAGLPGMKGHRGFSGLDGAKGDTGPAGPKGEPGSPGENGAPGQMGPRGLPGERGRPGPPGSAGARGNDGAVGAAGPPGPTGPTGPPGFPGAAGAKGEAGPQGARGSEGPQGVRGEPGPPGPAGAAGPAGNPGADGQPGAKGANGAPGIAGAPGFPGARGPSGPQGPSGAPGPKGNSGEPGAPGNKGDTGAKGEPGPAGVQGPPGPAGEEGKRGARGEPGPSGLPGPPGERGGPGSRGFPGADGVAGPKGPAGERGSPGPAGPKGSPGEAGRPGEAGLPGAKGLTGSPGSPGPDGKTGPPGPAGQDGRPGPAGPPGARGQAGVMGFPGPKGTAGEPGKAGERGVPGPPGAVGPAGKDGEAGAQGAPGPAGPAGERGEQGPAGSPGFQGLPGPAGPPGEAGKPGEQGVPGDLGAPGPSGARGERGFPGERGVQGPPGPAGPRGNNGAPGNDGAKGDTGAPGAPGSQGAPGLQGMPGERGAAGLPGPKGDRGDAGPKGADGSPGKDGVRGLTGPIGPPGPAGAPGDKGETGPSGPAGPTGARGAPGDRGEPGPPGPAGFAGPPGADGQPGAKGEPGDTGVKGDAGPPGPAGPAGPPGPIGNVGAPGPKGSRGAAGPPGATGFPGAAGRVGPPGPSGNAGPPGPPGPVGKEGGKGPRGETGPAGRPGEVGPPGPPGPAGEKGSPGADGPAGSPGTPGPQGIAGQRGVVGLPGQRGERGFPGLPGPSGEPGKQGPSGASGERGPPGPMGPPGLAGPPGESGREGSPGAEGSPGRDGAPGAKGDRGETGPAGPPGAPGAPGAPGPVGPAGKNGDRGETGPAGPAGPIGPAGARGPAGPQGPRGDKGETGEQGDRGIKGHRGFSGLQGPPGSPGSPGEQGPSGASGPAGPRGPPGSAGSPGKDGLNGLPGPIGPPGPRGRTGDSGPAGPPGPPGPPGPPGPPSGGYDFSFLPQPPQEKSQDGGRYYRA
T2 sequence (P02466 86-1125, chain 2 of 2): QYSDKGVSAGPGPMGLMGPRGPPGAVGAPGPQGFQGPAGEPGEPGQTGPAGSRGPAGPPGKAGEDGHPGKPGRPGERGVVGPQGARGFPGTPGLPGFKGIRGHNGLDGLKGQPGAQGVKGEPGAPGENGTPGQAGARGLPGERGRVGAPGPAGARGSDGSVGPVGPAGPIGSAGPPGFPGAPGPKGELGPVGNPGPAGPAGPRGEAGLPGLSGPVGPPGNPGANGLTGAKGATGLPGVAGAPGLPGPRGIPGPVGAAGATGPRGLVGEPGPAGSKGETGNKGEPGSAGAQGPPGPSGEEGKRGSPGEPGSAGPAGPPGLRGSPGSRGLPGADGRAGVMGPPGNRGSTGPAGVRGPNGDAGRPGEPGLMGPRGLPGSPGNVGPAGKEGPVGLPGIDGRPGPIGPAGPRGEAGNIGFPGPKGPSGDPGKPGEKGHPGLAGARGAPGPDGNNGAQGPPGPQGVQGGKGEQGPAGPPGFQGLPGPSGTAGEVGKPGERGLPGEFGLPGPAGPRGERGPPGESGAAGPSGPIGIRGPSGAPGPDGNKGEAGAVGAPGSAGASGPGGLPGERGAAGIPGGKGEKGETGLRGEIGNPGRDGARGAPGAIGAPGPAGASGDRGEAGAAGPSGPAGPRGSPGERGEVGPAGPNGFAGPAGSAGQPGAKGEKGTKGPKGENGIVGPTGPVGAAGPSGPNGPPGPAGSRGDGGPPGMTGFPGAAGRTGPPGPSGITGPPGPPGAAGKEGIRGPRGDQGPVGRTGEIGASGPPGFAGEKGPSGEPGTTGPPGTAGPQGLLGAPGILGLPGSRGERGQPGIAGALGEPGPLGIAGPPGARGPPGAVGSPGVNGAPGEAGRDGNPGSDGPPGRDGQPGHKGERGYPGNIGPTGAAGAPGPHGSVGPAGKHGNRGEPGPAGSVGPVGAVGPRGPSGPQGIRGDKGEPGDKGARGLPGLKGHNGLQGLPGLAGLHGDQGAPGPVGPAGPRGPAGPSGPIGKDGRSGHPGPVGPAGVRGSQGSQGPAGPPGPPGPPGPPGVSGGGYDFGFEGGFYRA
Put plainly: ELISA; ELISA-like binding assay; type I collagen from rat tail coated at 10 ug/mL on MaxiSorp plates (coating of GPR-foldon not described); His-tagged HSP47 at 1.2 to 5,000 nM in solution; detected with HRP-coupled anti-His antibody; four-parameter logistic fit. To be noted: both partners purified. (In an ELISA, binding on a coated surface is turned into a signal by an enzyme label.)

Changes are numbered by the printed parent chain. Numbers in names are those of the source.

B1: recombinant wild-type canine HSP47 (natural protein, UniProt C7C419 36-418, looked up)
chain: LSPKAATLAERSAGLAFSLYQAMAKDQAVENILLSPVVVASSLGLVSLGGKATTASQAKAVLSAEQLRDEEVHAGLGELLRSLSNSTARNVTWKLGSRLYGPSSVSFAEDFVRSSKQHYNCEHSKINFRDKRSALQSINEWAAQTTDGKLPEVTKDVERTDGALLVNAMFFKPHWDEKFHHKMVDNRGFMVTRSYTVGVTMMHRTGLYNYYDDEKEKLQIVEMPLAHKLSSLIILMPHHVEPLERLEKLLTKEQLKIWMGKMQKKAVAISLPKGVVEVTHDLQKHLAGLGLTEAIDKNKADLSRMSGKKDLYLASVFHATAFEWDTEGNPFDQDIYGREELRSPKLFYADHPFIFLVRDTQSGSLLFIGRLVRPKGDKMRDEL
notes: HSP47 (serpin H1), canine, residues 36-418 printed as 36LSP; RDEL418, in a pJExpress411 vector; The methods describe a strep-tagged construct; the ELISA methods speak of His-tagged HSP47 proteins detected by an anti-His antibody; also called wild-type HSP47; WT HSP47; source: E. coli BL21 (DE3), purified (Streptactin column, Superdex 200 SEC)
As a reminder, the Kd is the equilibrium constant for the complex coming apart. A low value points to a tighter complex. In the case of B1, the Kd in assay [1] was found to be 60 nM; in assay [2] it was 139 nM.

B2: recombinant canine HSP47-R222S (natural protein, UniProt C7C419 36-418, looked up)
chain: B1 chain with R187S
notes: HSP47 (serpin H1), canine, residues 36-418 (36LSP... RDEL418) with R222S introduced by Quikchange mutagenesis; The substitution is the one found in the human patient, placed in the canine protein; Strep tag by the purification methods, His tag by the ELISA methods; also called R222S HSP47; source: E. coli BL21 (DE3), purified as wild-type HSP47 (Streptactin column, Superdex 200 SEC)
Regarding B2, the figures for the dissociation constant Kd in assay [1] and in assay [2] were 640 nM and approximately 3600 nM, respectively.
